From patent US20120114590A1 (priority 2005, published 2012)

How the values were obtained:
[1] = test system: 293 HEK cells overexpressing zcytor19; assay: Inhibition of ligand-induced ISRE-luciferase signaling by soluble receptors; assay type: cell-based, human; settings: 10 ng/ml ligand, 10 micrograms/ml soluble receptor, 4-hour; relative to PBS alone
BVDV = BVDV inhibition of cytopathic effect assay in MDBK cells; assay type: cell-based, bovine viral diarrhea virus; settings: MDBK bovine kidney cells, day 7
Protocol: The MDBK cells were propagated in Dulbecco's modified essential medium (DMEM) containing phenol red with 10% horse serum, 1% glutamine and 1% penicillin-streptomycin. CPE inhibition assays were performed in DMEM without phenol red with 2% FBS, 1% glutamine and 1% Pen-Strep. On the day preceding the assays, cells were trypsinized (1% trypsin-EDTA), washed, counted and plated out at 10^4 cells/well in a 96-well flat-bottom BioCoat® plates (Fisher Scientific, Pittsburgh, Pa.) in a volume of 100 μl/well. The next day, the medium was removed and a pre-titered aliquot of virus was added to the cells. The amount of virus was the maximum dilution that would yield complete cell killing (>80%) at the time of maximal CPE development (day 7 for BVDV). Cell viability was determined using a CellTiter96® reagent (Promega) according to the manufacturer's protocol, using a Vmax plate reader (Molecular Devices, Sunnyvale, Calif.). Test samples were tested at six concentrations each, diluted in assay medium in a half-log series. IFNα and RIBAVIRIN® were used as positive controls. Test sample were added at the time of viral infection. The average background and sample color-corrected data for percent CPE reduction and percent cell viability at each concentration were determined relative to controls and the IC50 calculated relative to the TC50.

Parainfluenza virus = assay type: cell-based
Coxsackie B4 virus [2] = assay type: cell-based; settings: KB
Dengue virus [3] = assay type: cell-based; settings: Vero
Polio virus [4] = assay type: cell-based; settings: Vero
Adenovirus = assay type: cell-based; settings: A549 cells, Neutral Red Assay
[5] = test system: Respiratory syncytial virus; assay type: cell-based; settings: MA-104 cells, Neutral Red Assay
Rhino 9 = assay type: cell-based, rhino virus; settings: Rhino 9, HeLa cells, Neutral Red Assay
Coxsackie B4 virus [6] = assay type: cell-based; settings: KB cells, Neutral Red Assay
Vaccinia virus = assay type: cell-based; settings: Vero cells, Neutral Red Assay
West Nile virus = assay type: cell-based; settings: Vero cells, Neutral Red Assay
Dengue virus [7] = assay type: cell-based; settings: Vero cells, Neutral Red Assay
[8] = test system: Venezuelan equine encephalitis virus; assay type: cell-based; settings: Vero cells, Neutral Red Assay
Polio virus [9] = assay type: cell-based; settings: Vero cells, Neutral Red Assay
AML-12 cells = assay: ISG induction in the mouse liver cell line AML-12 (real-time PCR); assay type: cell-based; settings: AML-12, 20 ng/ml, 48 hour time point; mRNA relative to HPRT gene expression
Protocol: AML-12 cells were plated in 6-well plates in complete DMEM media at a concentration of 2×10^6 cells/well. […] As a control, cells were either stimulated with mouse IFNα (positive control) or unstimulated (negative). […] RNA was isolated from cell pellets using RNAEasy-kit® (Qiagen, Valencia, Calif.). RNA was treated with DNase (Millipore, Billerica, Mass.) to clean RNA of any contaminating DNA. cDNA was generated using Perkin-Elmer RT mix. ISG gene induction was evaluated by real-time PCR using primers and probes specific for mouse OAS, Pkr and Mx1. To obtain quantitative data, HPRT real-time PCR was duplexed with ISG PCR. A standard curve was obtained using known amounts of RNA from IFN-stimulated mouse PBLs. All data are shown as expression relative to internal HPRT expression.

[10] = test system: liver, spleen and blood of mice; assay: ISG gene expression (OAS, Pkr, Mx1) in liver, spleen and blood of injected C57BL/6 mice (real-time PCR); assay type: in vivo, mouse; settings: for OAS-1 hr / OAS-6 hr / OAS-24 hr / OAS-48 hr: single injection of 250 μg i.v., average of 5 animals; for OAS (24 hr): fold expression relative to HPRT
Protocol: Mice were sacrificed at various time points (1 hr-48 hr). Spleens and livers were isolated from mice, and RNA was isolated. RNA was also isolated from the blood cells. The cells were pelleted and RNA isolated from pellets using RNAEasy®-kit (Qiagen). RNA was treated with DNase (Amicon) to rid RNA of any contaminating DNA. cDNA was generated using Perkin-Elmer RT mix (Perkin-Elmer). ISG gene induction was measured by real-time PCR using primers and probes specific for mouse OAS, Pkr and Mx1. To obtain quantitative data, HPRT real-time PCR was duplexed with ISG PCR. A standard curve was calculated using known amounts of IFN-stimulated mouse PBLs. All data are shown as expression relative to internal HPRT expression.

OAS = OAS activity in serum and plasma of mice (OAS radioimmunoassay); assay type: in vivo, mouse; settings: C57BL/6 mice
Protocol: Serum and plasma were isolated from mice at varying time points, and OAS activity was measured using the OAS radioimmunoassay (RIA) kit from Eiken Chemicals (Tokyo, Japan).

B1: IL-29: human IL-29 cytokine polypeptide (zcyto21), e.g. SEQ ID NO:20 (protein, listed as Homo sapiens)
chain: MAAAWTVVLVTLVLGLAVAGPVPTSKPTTTGKGCHIGRFKSLSPQELASFKKARDALEESLKLKNWSCSSPVFPGNWDLRLLQVRERPVALEAELALTLKVLEAAAGPALEDVLDQPLHTLHHILSQLQACIQPQPTAGPRPRGRLHHWLHRLQEAPKKESAGCLEASVTFNLFRLLTRDLKYVADGNLCLRTSTHPEST
modifications: SIGNAL (1)...(19)
[1]
  Percent Inhibition of Ligand-induced ISRE Signaling by HuCRF2-4-Fc: 79%
  Percent Inhibition of Ligand-induced ISRE Signaling by Huzcytor19-Fc: 45%
  Percent Inhibition of Ligand-induced ISRE Signaling by Huzcytor19-Fc/huCRF2-4-Fc: 16%
  Percent Inhibition of Ligand-induced ISRE Signaling by Muzcytor19-Ig: 103%
BVDV
  IC50 (inhibition of cell death induced by BVDV): 0.19 µg/mL
Parainfluenza virus; MA-104
  EC50 Visual: >10 µg/mL
Parainfluenza virus; MA-104, numerator of SI
  IC50 Visual: >10 µg/mL
Coxsackie B4 virus [2]
  EC50 Visual: >10 µg/mL
Coxsackie B4 virus [2]; numerator of SI
  IC50 Visual: >10 µg/mL
Dengue virus [3]
  EC50 Visual: 0.032 µg/mL
Dengue virus [3]; numerator of SI
  IC50 Visual: >10 µg/mL
Polio virus [4]
  EC50 Visual: >10 µg/mL
Polio virus [4]; numerator of SI
  IC50 Visual: >10 µg/mL
Adenovirus
  EC50 NR: >10 µg/mL
  IC50 NR: >10 µg/mL
[5]
  EC50 NR: >10 µg/mL
  IC50 NR: >10 µg/mL
Rhino 9
  EC50 NR: 0.982 µg/mL
  IC50 NR: >10 µg/mL
Coxsackie B4 virus [6]
  EC50 NR: >10 µg/mL
  IC50 NR: >10 µg/mL
Vaccinia virus
  EC50 NR: >10 µg/mL
  IC50 NR: >10 µg/mL
West Nile virus
  EC50 NR: 0.25 ng/mL
  IC50 NR: >10 µg/mL
Dengue virus [7]
  EC50 NR: 0.05 µg/mL
  IC50 NR: >10 µg/mL
[8]
  EC50 NR: 0.05 µg/mL
  IC50 NR: >10 µg/mL
Polio virus [9]
  EC50 NR: >10 µg/mL
  IC50 NR: >10 µg/mL
AML-12 cells
  Mx1: 0.07
  OAS: 0.04
  PkR: 0.02
[10]; C57BL/6 mice
  sustained expression of ISGs above control mice: up to 48 hours
  time of peak expression of ISGs after injection: 1 to 6 h
[10]; C57BL/6 mice, i.p or i.v, 10 μg-250 μg
  ISG gene expression (OAS, Pkr, Mx1) in the livers, spleen and blood of mice: induced ISG gene expression
[10]; blood, C57BL/6 mice
  OAS-1 hr: 12 fold expression relative to HPRT gene expression
  OAS-6 hr: 18 fold expression relative to HPRT gene expression
  OAS-24 hr: 11 fold expression relative to HPRT gene expression
  OAS-48 hr: 10 fold expression relative to HPRT gene expression
[10]; liver, C57BL/6 mice
  OAS-1 hr: 2.5 fold expression relative to HPRT gene expression
  OAS-6 hr: 4 fold expression relative to HPRT gene expression
  OAS-24 hr: 2.5 fold expression relative to HPRT gene expression
  OAS-48 hr: 2.8 fold expression relative to HPRT gene expression
[10]; mice injected with 10 μg
  OAS (24 hr): 3.7
[10]; mice injected with 50 μg
  OAS (24 hr): 4.2
[10]; mice injected with 250 μg
  OAS (24 hr): 6
[10]; spleen, C57BL/6 mice
  OAS-1 hr: 4 fold expression relative to HPRT gene expression
  OAS-6 hr: 6 fold expression relative to HPRT gene expression
  OAS-24 hr: 3.2 fold expression relative to HPRT gene expression
  OAS-48 hr: 3.2 fold expression relative to HPRT gene expression
OAS; i.v, 10 μg-250 μg
  OAS activity in the serum and plasma of mice: induced OAS activity
OAS; plasma, 1 hr, 250 μg i.v.
  OAS-1 hr (OAS activity): 80 pmol/dL of plasma
OAS; plasma, 6 hr, 250 μg i.v.
  OAS-6 hr (OAS activity): 80 pmol/dL of plasma
OAS; plasma, 24 hr, 250 μg i.v.
  OAS-24 hr (OAS activity): 180 pmol/dL of plasma
OAS; plasma, 48 hr, 250 μg i.v.
  OAS-48 hr (OAS activity): 200 pmol/dL of plasma
